Test results as given in patent publication US20230093708A1, “PROTEIN NANOPARTICLE DESIGN AND APPLICATION” (Duke University, priority 2020, published 2023).

Legend:
[1] = Static and dynamic light scattering (SLS/DLS) of block co-polypeptides; type: physicochemical; settings: for Nagg / Rg(nm) / Rh (nm): 10 μM in PBS, 15 °C; for ρ: shape factor Rg/Rh
Procedure: Key parameters of interest are the hydrophilicity of the corona-forming block, the hydrophilicity of the core block, the overall length of the co-polypeptide and the ratio of the two blocks. Parameters of evaluation are the size, morphology, stability, and thermoresponsive behavior. All measurements were made in 140 mM NaCl, 10 mM phosphate buffer, 3 mM KCl, pH 7.4 unless otherwise specified. Size was evaluated by the hydrodynamic radios (Rh) and radius of gyration (Rg) by dynamic light scattering (DLS) and static light scattering (SLS) respectively. Rg and Rh can be combined to yield the shape factor ρ=Rg/Rh, which provides a rough indication of the morphology of the scatterer. […] For an elongated scatterer, the shape factor depends upon the aspect ratio. A combination of temperature dependent turbidity and DLS was utilized to determine the phase behavior of the block co-polypeptides. Cryogenic transmission electron microscopy (Cryo-TEM) was utilized to evaluate the morphology and provide crucial insight into the hydration of the core/corona chains. Stability of the assembled nanostructure was determined by a shift in the I1/I3 fluorescent bands of pyrene as described previously.
Static and dynamic light scattering measurements (SLS/DLS) were performed using an ALV/CGS-3 goniometer system (Langen, Germany). Samples for the ALV/CGS-3 goniometer system were prepared at a concentration of 10 μM in PBS and filtered through 0.45 μm Millex-GV filters into a 10 mm disposable borosilicate glass tube (Fischer). Simultaneous SLS and DLS measurements were obtained at 15° C. of the ELP for angles between 30°-150° at 5° increments, with each angle consisting of 3 runs for 15 s. SLS experiments were only conducted for self-assembling block co-polypeptides, since the molecular weight of a single block co-polypeptide chain is already known, and the Rg of a single chain is likely near or below the detection limit of the SLS instrument. The differential refractive index (dn/dc) was determined by measuring the refractive index at different concentrations using an Abbemat 500 refractometer (Anton Paar, Graz, Austria). DLS data were analyzed by fitting the autocorrelation function with a cumulant fit, using the built-in ALV software. Hydrodynamic radius (Rh) was plotted against angle and extrapolated to zero. SLS data were analyzed by partial Zimm plots using ALVSTAT software in order to determine the Rg and molecular weight (MW).

[2] = Cryo-TEM micelle core size, inter-core spacing and aspect ratio; type: physicochemical; settings: for Spacing (nm): inter-core spacing; for Spacing (nm) / Core radius (nm): mean ± standard deviation
Procedure: Using the data from FIG. 18, particularly the longest straight line of an individual particle and a corresponding perpendicular measurement were made to describe the aspect ratio of particles observed.
Cryo-TEM experiments were performed at Duke University's Shared Materials Instrumentation Facility (Durham, N.C.). Lacey holey carbon grids (Ted Pella, Redding, Calif.) were glow discharged in a PELCO EasiGlow Cleaning System (Ted Pella, Redding, Calif.). A 3 μL drop (10 μM RLPn-ELP80) was deposited onto the grid, blotted for 3 s with an offset of −3 mm, and vitrified in liquid ethane using the Vitrobot Mark III (FEI, Eindhoven, Netherlands). Prior to vitrification, the sample chamber was maintained at 15° C. and 100% relative humidity to prevent sample evaporation. Grids were transferred to a Gatan 626 cryoholder (Gatan, Pleasanton, Calif.) and imaged with a FEI Tecnai G2 Twin TEM (FEI, Eindhoven, Netherlands), operating at 80 keV. Feature sizes and spacing distances were measured in ImageJ by manual measurement of at least 25 particles.

Molecule | hydrodynamic radius (Rh) [1] | radius of gyration (Rg) [1] | shape factor / form factor (Rg/Rh) [1] | Nagg ([1]; Table 3) | Rg(nm) ([1]; Table 3) | Rh (nm) ([1]; Table 3) | ρ ([1]; Table 3) | core radius (cryo-TEM) [2] | spacing between particle cores (cryo-TEM) [2] | Spacing (nm) ([2]; Table 4) | Core radius (nm) ([2]; Table 4) | Nagg ([1]; Table 5) | Rg(nm) ([1]; Table 5) | Rh (nm) ([1]; Table 5) | ρ ([1]; Table 5) | Spacing (nm) ([2]; Table 6) | Core radius (nm) ([2]; Table 6)
RLP40-ELP40: RLP-ELP block co-polypeptide, 40 core and 40 corona repeats (protein) QYPSDGRGQYPSDGRGQYPSDGRGQYPSDGRGQYPSDGRGQYPSDGRGQYPSDGRGQYPSDGRGQYPSDGRGQYPSDGRGQYPSDGRGQYPSDGRGQYPSDGRGQYPSDGRGQYPSDGRGQYPSDGRGQYPSDGRGQYPSDGRGQYPSDGRGQYPSDGRGQYPSDGRGQYPSDGRGQYPSDGRGQYPSDGRGQYPSDGRGQYPSDGRGQYPSDGRGQYPSDGRGQYPSDGRGQYPSDGRGQYPSDGRGQYPSDGRGQYPSDGRGQYPSDGRGQYPSDGRGQYPSDGRGQYPSDGRGQYPSDGRGQYPSDGRGQYPSDGRGGAGVPGGGVPGAGVPGGGVPGAGVPGGGVPGAGVPGGGVPGAGVPGGGVPGAGVPGGGVPGAGVPGGGVPGAGVPGGGVPGAGVPGGGVPGAGVPGGGVPGAGVPGGGVPGAGVPGGGVPGAGVPGGGVPGAGVPGGGVPGAGVPGGGVPGAGVPGGGVPGAGVPGGGVPGAGVPGGGVPGAGVPGGGVPGAGVPGGGVP | 52.6 nm | 56.2 nm | greater than 1 | 91 | 56.2 nm | 52.6 nm | 1.13 | 11.8 nm | 19.5 nm | 19.5 ± 4.3 nm | 11.8 ± 1.6 nm |  |  |  |  |  | 
RLP40-ELPV80: RLP-ELP block co-polypeptide with Val guest residue in the corona (protein) QYPSDGRGQYPSDGRGQYPSDGRGQYPSDGRGQYPSDGRGQYPSDGRGQYPSDGRGQYPSDGRGQYPSDGRGQYPSDGRGQYPSDGRGQYPSDGRGQYPSDGRGQYPSDGRGQYPSDGRGQYPSDGRGQYPSDGRGQYPSDGRGQYPSDGRGQYPSDGRGQYPSDGRGQYPSDGRGQYPSDGRGQYPSDGRGQYPSDGRGQYPSDGRGQYPSDGRGQYPSDGRGQYPSDGRGQYPSDGRGQYPSDGRGQYPSDGRGQYPSDGRGQYPSDGRGQYPSDGRGQYPSDGRGQYPSDGRGQYPSDGRGQYPSDGRGQYPSDGRGGVGVPGVGVPGVGVPGVGVPGVGVPGVGVPGVGVPGVGVPGVGVPGVGVPGVGVPGVGVPGVGVPGVGVPGVGVPGVGVPGVGVPGVGVPGVGVPGVGVPGVGVPGVGVPGVGVPGVGVPGVGVPGVGVPGVGVPGVGVPGVGVPGVGVPGVGVPGVGVPGVGVPGVGVPGVGVPGVGVPGVGVPGVGVPGVGVPGVGVPGVGVPGVGVPGVGVPGVGVPGVGVPGVGVPGVGVPGVGVPGVGVPGVGVPGVGVPGVGVPGVGVPGVGVPGVGVPGVGVPGVGVPGVGVPGVGVPGVGVPGVGVPGVGVPGVGVPGVGVPGVGVPGVGVPGVGVPGVGVPGVGVPGVGVPGVGVPGVGVPGVGVPGVGVPGVGVPGVGVPGVGVPGVGVPGVGVPGVGVP |  |  | > 1 |  |  |  |  |  |  |  |  | 213 | 33.1 nm | 31.7 nm | 1.04 | 19.4 ± 4.4 nm | 14.5 ± 3.6 nm
RLP80-ELPS80: RLP-ELP block co-polypeptide with Ser guest residue in the corona (protein) QYPSDGRGQYPSDGRGQYPSDGRGQYPSDGRGQYPSDGRGQYPSDGRGQYPSDGRGQYPSDGRGQYPSDGRGQYPSDGRGQYPSDGRGQYPSDGRGQYPSDGRGQYPSDGRGQYPSDGRGQYPSDGRGQYPSDGRGQYPSDGRGQYPSDGRGQYPSDGRGQYPSDGRGQYPSDGRGQYPSDGRGQYPSDGRGQYPSDGRGQYPSDGRGQYPSDGRGQYPSDGRGQYPSDGRGQYPSDGRGQYPSDGRGQYPSDGRGQYPSDGRGQYPSDGRGQYPSDGRGQYPSDGRGQYPSDGRGQYPSDGRGQYPSDGRGQYPSDGRGQYPSDGRGQYPSDGRGQYPSDGRGQYPSDGRGQYPSDGRGQYPSDGRGQYPSDGRGQYPSDGRGQYPSDGRGQYPSDGRGQYPSDGRGQYPSDGRGQYPSDGRGQYPSDGRGQYPSDGRGQYPSDGRGQYPSDGRGQYPSDGRGQYPSDGRGQYPSDGRGQYPSDGRGQYPSDGRGQYPSDGRGQYPSDGRGQYPSDGRGQYPSDGRGQYPSDGRGQYPSDGRGQYPSDGRGQYPSDGRGQYPSDGRGQYPSDGRGQYPSDGRGQYPSDGRGQYPSDGRGQYPSDGRGQYPSDGRGQYPSDGRGQYPSDGRGQYPSDGRGGSGVPGSGVPGSGVPGSGVPGSGVPGSGVPGSGVPGSGVPGSGVPGSGVPGSGVPGSGVPGSGVPGSGVPGSGVPGSGVPGSGVPGSGVPGSGVPGSGVPGSGVPGSGVPGSGVPGSGVPGSGVPGSGVPGSGVPGSGVPGSGVPGSGVPGSGVPGSGVPGSGVPGSGVPGSGVPGSGVPGSGVPGSGVPGSGVPGSGVPGSGVPGSGVPGSGVPGSGVPGSGVPGSGVPGSGVPGSGVPGSGVPGSGVPGSGVPGSGVPGSGVPGSGVPGSGVPGSGVPGSGVPGSGVPGSGVPGSGVPGSGVPGSGVPGSGVPGSGVPGSGVPGSGVPGSGVPGSGVPGSGVPGSGVPGSGVPGSGVPGSGVPGSGVPGSGVPGSGVPGSGVPGSGVPGSGVPGSGVP |  |  |  |  |  |  |  |  |  |  |  | 392 | 36.0 nm | 49.4 nm | 0.73 | 27.9 ± 4.0 nm | 14.6 ± 2.2 nm
RLP80-ELPV80: RLP-ELP block co-polypeptide with Val guest residue in the corona (protein) QYPSDGRGQYPSDGRGQYPSDGRGQYPSDGRGQYPSDGRGQYPSDGRGQYPSDGRGQYPSDGRGQYPSDGRGQYPSDGRGQYPSDGRGQYPSDGRGQYPSDGRGQYPSDGRGQYPSDGRGQYPSDGRGQYPSDGRGQYPSDGRGQYPSDGRGQYPSDGRGQYPSDGRGQYPSDGRGQYPSDGRGQYPSDGRGQYPSDGRGQYPSDGRGQYPSDGRGQYPSDGRGQYPSDGRGQYPSDGRGQYPSDGRGQYPSDGRGQYPSDGRGQYPSDGRGQYPSDGRGQYPSDGRGQYPSDGRGQYPSDGRGQYPSDGRGQYPSDGRGQYPSDGRGQYPSDGRGQYPSDGRGQYPSDGRGQYPSDGRGQYPSDGRGQYPSDGRGQYPSDGRGQYPSDGRGQYPSDGRGQYPSDGRGQYPSDGRGQYPSDGRGQYPSDGRGQYPSDGRGQYPSDGRGQYPSDGRGQYPSDGRGQYPSDGRGQYPSDGRGQYPSDGRGQYPSDGRGQYPSDGRGQYPSDGRGQYPSDGRGQYPSDGRGQYPSDGRGQYPSDGRGQYPSDGRGQYPSDGRGQYPSDGRGQYPSDGRGQYPSDGRGQYPSDGRGQYPSDGRGQYPSDGRGQYPSDGRGQYPSDGRGQYPSDGRGQYPSDGRGGVGVPGVGVPGVGVPGVGVPGVGVPGVGVPGVGVPGVGVPGVGVPGVGVPGVGVPGVGVPGVGVPGVGVPGVGVPGVGVPGVGVPGVGVPGVGVPGVGVPGVGVPGVGVPGVGVPGVGVPGVGVPGVGVPGVGVPGVGVPGVGVPGVGVPGVGVPGVGVPGVGVPGVGVPGVGVPGVGVPGVGVPGVGVPGVGVPGVGVPGVGVPGVGVPGVGVPGVGVPGVGVPGVGVPGVGVPGVGVPGVGVPGVGVPGVGVPGVGVPGVGVPGVGVPGVGVPGVGVPGVGVPGVGVPGVGVPGVGVPGVGVPGVGVPGVGVPGVGVPGVGVPGVGVPGVGVPGVGVPGVGVPGVGVPGVGVPGVGVPGVGVPGVGVPGVGVPGVGVPGVGVPGVGVPGVGVPGVGVP |  |  |  |  |  |  |  |  |  |  |  | 693 | 94.4 nm | 71.0 nm | 1.31 | 29.6 ± 3.8 nm | 14.2 ± 2.4 nm
